Legend:
[1] = biological target: T1, Human IL-17A重组蛋白 (Gly 24-Ala 155, C端6×His) (human, biotinylated in the ELISA of paragraph 251 (Biotin-IL-17A-His)); experiment: ELISA: antibody coated at 2 μg/mL, Biotin-IL-17A-His titrated from 10 μg/mL (5-fold, 7 points), HRP-streptavidin
[2] = biological target: T1, Human IL-17A重组蛋白 (Gly 24-Ala 155, …); experiment: cell-based or functional assay
[3] = biological target: T1, Human IL-17A重组蛋白 (Gly 24-Ala 155, …); experiment: BLI (ForteBio OCTET R2): IL-17A-His at 5 μg/mL on HIS1K sensor, antibody 50-3.13 nM, 25℃

T1 sequence (chain, as listed by the source): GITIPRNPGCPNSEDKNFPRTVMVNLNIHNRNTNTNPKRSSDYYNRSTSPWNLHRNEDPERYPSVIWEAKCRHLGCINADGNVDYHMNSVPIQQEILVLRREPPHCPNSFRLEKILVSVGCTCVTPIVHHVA

B1: 单域抗体1-C3 (Fc fusion)
chain: DVQLVESGGGLVEPGESLRLSCAAPGEDLGYYAIAWFRQAPGKEREVVSCVTSSGSSTNYLSSVKDRFTISIDNAKNTVYLQMNSLKPEDTAVYYCASTILLCSDYISAFGTWGQGTQVTVAS
notes: not shown: human IgG1 Fc of vector pcDNA3.4-hIgG1-Fc
In the case of B1, the EC50 [1] is reported as 5.28 µg/mL.

B2: 阳性对照抗体Ixekizumab (antibody, human IgG4 S228P, kappa, V domains shown)
VH: QVQLVQSGAEVKKPGSSVKVSCKASGYSFTDYHIHWVRQAPGQGLEWMGVINPMYGTTDYNQRFKGRVTITADESTSTAYMELSSLRSEDTAVYYCARYDYFTGTGVYWGQGTLVTVSS
VL: DIVMTQTPLSLSVTPGQPASISCRSSRSLVHSRGNTYLHWYLQKPGQSPQLLIYKVSNRFIGVPDRFSGSGSGTDFTLKISRVEAEDVGVYYCSQSTHLPFTFGQGTKLEIKR
notes: also called 阳性抗体; 依奇珠单抗
B2 was tested, and the “串联单域抗体阻断活性检测 (293F-IL-17RA-IL-17Rc-ACT1-NFκB-Luc报告基因细胞株), IC50” value [2] was 2.23 nM, the Kd [3] was 0.391 nM and the EC50 [1] was 10.1 µg/mL.

B3: 串联单域抗体1-C3-3-H10 (VHH-(GGGGS)3-VHH-IgG1 Fc) (Fc fusion)
chain: DVQLVESGGGLVEPGESLRLSCAAPGEDLGYYAIAWFRQAPGKEREVVSCVTSSGSSTNYLSSVKDRFTISIDNAKNTVYLQMNSLKPEDTAVYYCASTILLCSDYISAFGTWGQGTQVTVASGGGGSGGGGSGGGGSEVQLVESGGGLVQPGGSLRLSCAASGFSIHIYAMGWYRQAPGKQRELVATITRGGVTNNADSVKGRFTISRDNAKNTAYLQMNSLKPEDTAVYYCNAGGTNGGYWGQGTQVTVSS
notes: also called C3-H10; C3-H10重组蛋白; not shown: human IgG1 Fc
With B3 the “串联单域抗体阻断活性检测 (293F-IL-17RA-IL-17Rc-ACT1-NFκB-Luc报告基因细胞株), IC50” value [2] was 0.63 nM, the Kd [3] was 1.32 nM and the EC50 [1] was 1.13 µg/mL.

B4: 单域抗体3-H10 (Fc fusion)
chain: EVQLVESGGGLVQPGGSLRLSCAASGFSIHIYAMGWYRQAPGKQRELVATITRGGVTNNADSVKGRFTISRDNAKNTAYLQMNSLKPEDTAVYYCNAGGTNGGYWGQGTQVTVSS
notes: as for B1
B4 showed an EC50 [1] of 1.22 µg/mL.

From patent publication CN117866903A (BEILAI PHARMACEUTICAL CO LTD, dated 2024)
